Assay results: US11155602B2, “Polypeptides targeting HIV fusion” (priority 2015, dated 2021)

B1: 301 (protein)
chain: MGHHHHHHGGSVSDVPRDLEVVAATPTSLLISWEYKVHPYRYYRITYGETGGNSPVQEFTVPSVLSTATISGLKPGVDYTITVYAVTHGDDFAPISINYRTEMLI
modifications: Adnectin
B2: 132 (protein)
chain: MGHHHHHHGGSVSDVPRDLEVVAATPTSLLISWDAPAVTVEEYYIGYYVEFEPSSYQWFTVPGSKSTATISGLKPGVEYSIYVNAVTGMGMQPEMSLPISINYRTEGS
modifications: Adnectin
B3: 297 (protein)
chain: MGHHHHHHGGSVSDVPRDLEVVAATPTSLLISWEYKVDPWRYYRITYGETGGNSPVQEFTVPSVLSTATISGLKPGVDYTITVYAVTYGDDSAPISINYRTEID
modifications: Adnectin
B4: 318 (protein)
chain: MGHHHHHHGGSVSDVPRDLEVVAATPTSLLISWEYKVNGYRYYRITYGETGGNSPVQEFTVPSVLSTATISGLKPGVDYTITVYAVTYGDDSAPISINYRTEID
modifications: Adnectin
B5: 313 (protein)
chain: MGHHHHHHGGSVSDVPRDLEVVAATPTSLLISWEYKVAHGRYYRITYGETGGNSPVQEFTVPSVLSTATISGLKPGVDYTITVYAVTYGDDSAPISINYRTEID
modifications: Adnectin
B6: 305 (protein)
chain: MGHHHHHHGGSVSDVPRDLEVVAATPTSLLISWEYKVDPYRYYRITYGETGGNSPVQEFTVPSVLSTATISGLKPGVDYTITVYAVTYGDDSAPISINYRTEID
modifications: Adnectin
B7: 315 (protein)
chain: MGHHHHHHGGSVSDVPRDLEVVAATPTSLLISWEYKVDRWRYYRITYGETGGNSPVQEFTVPSVLSTATISGLKPGVDYTITVYAVTYGDDSAPISINYRTEID
modifications: Adnectin
B8: 320 (protein)
chain: MGHHHHHHGGSVSDVPRDLEVVAATPTSLLISWEYKVTTWRYYRITYGETGGNSPVQEFTVPSVLSTATISGLKPGVDYTITVYAVTYGDDSAPISINYRTEID
modifications: Adnectin
B9: 133 (protein)
chain: MGHHHHHHGGSVSDVPRDLEVVAATPTSLLISWEYKVHYDRYYRITYGETGGNSPVQEFTVPSVLSTATISGLKPGVDYTITVYAVTYGVDSDPISINYRTEID
modifications: Adnectin
B10: 298 (protein)
chain: MGHHHHHHGGSVSDVPRDLEVVAATPTSLLISWEYKVDYQRYYRITYGETGGNSPVQEFTVPSVLSTATISGLKPGVDYTITVYAVTYGDDSAPISINYRTEID
modifications: Adnectin
B11: 309 (protein)
chain: MGHHHHHHGGSVSDVPRDLEVVAATPTSLLISWEYKVHPYRYYRITYGETGGNSPVQEFTVPSVLSTATISGLKPGVDYTITVYAVTHGDDSAPISINYRTEID
modifications: Adnectin
B12: 302 (protein)
chain: MGHHHHHHGGSVSDVPRDLEVVAATPTSLLISWEYKVHPYRYYRITYGETGGNSPVQEFTVPSVLSSATINGLKPGVDYTITVYAVTYGDDSAPISINYRTEID
modifications: Adnectin
B13: 316 (protein)
chain: MGHHHHHHGGSVSDVPRDLEVVAATPTSLLISWEYAVHPYRYYRITYGETGGNSPVQEFTVPSVLSTATISGLKPGVDYTITVYAVTYGDDSAPISINYRTEID
modifications: Adnectin
B14: 319 (protein)
chain: MGHHHHHHGGSVSDVPRDLEVVAATPTSLLISWEYKVSHGRYYRITYGETGGNSPVQEFTVPSVLSTATISGLKPGVDYTITVYAVTYGDDSAPISINYRTEID
modifications: Adnectin
B15: 312 (protein)
chain: MGHHHHHHGGSVSDVPRDLEVVAATPTSLLISWEYKVHPYRYYRITYGETGGNSPVQEFLVPSVLSTATISGLKPGVDYTITVYAVTYGDDSAPISINYRTEID
modifications: Adnectin
B16: 317 (protein)
chain: MGHHHHHHGGSVSDVPRDLEVVAATPTSLLISWEYKVNAYRYYRITYGETGGNSPVQEFTVPSVLSTATISGLKPGVDYTITVYAVTYGDDSAPISINYRTEID
modifications: Adnectin
B17: 308 (protein)
chain: MGHHHHHHGGSVSDVPRDLEVVAATPTSLLISWEYKVNAWRYYRITYGETGGNSPVQEFTVPSVLSTATISGLKPGVDYTITVYAVTYGDDSAPISINYRTEID
modifications: Adnectin
B18: 310 (protein)
chain: MGHHHHHHGGSVSDVPRDLEVVAATPTSLLISWEYKVHPYRYYRITYGETGGNSPVQEFTVPSVLSTATINGLKPGVDYTITVYAVTYGDDSAPISINYRTEID
modifications: Adnectin
B19: 304 (protein)
chain: MGHHHHHHGGSVSDVPRDLEVVAATPTSLLISWEYKVAHDRYYRITYGETGGNSPVQEFTVPSVLSTATISGLKPGVDYTITVYAVTYGDDSAPISINYRTEID
modifications: Adnectin
B20: 303 (protein)
chain: MGHHHHHHGGSVSDVPRDLEVVAATPTSLLISWEYKVHPYRYYRITYGETGGNSPVQEFKVPSVLSTATISGLKPGVDYTITVYAVTYGDDSAPISINYRTEID
modifications: Adnectin
B21: 299 (protein)
chain: MGHHHHHHGGSVSDVPRDLEVVAATPTSLLISWKYKVHPYRYYRITYGETGGNSPVQEFTVPSVLSTATISGLKPGVDYTITVYAVTYGDDSAPISINYRTEID
modifications: Adnectin
B22: 314 (protein)
chain: MGHHHHHHGGSVSDVPRDLEVVAATPTSLLISWEYKVAYKRYYRITYGETGGNSPVQEFTVPSVLSTATISGLKPGVDYTITVYAVTYGDDSAPISINYRTEID
modifications: Adnectin
B23: 306 (protein)
chain: MGHHHHHHGGSVSDVPRDLEVVAATPTSLLISWEYKVDYRRYYRITYGETGGNSPVQEFTVPSVLSTATISGLKPGVDYTITVYAVTYGDDSAPISINYRTEID
modifications: Adnectin
B24: 307 (protein)
chain: MGHHHHHHGGSVSDVPRDLEVVAATPTGLLISWEYKVHPYRYYRITYGETGGNSPVQEFTVPSVLSTATISGLKPGVDYTITVYAVTYGDDSAPISINYRTEID
modifications: Adnectin
B25: 311 (protein)
chain: MGHHHHHHGGSVSDVPRDLEVVAATPTSLLISWEYKVHPYRYYRITYGETGGNSPVQEFTVPSVLSTAEISGLKPGVDYTITVYAVTYGDDSAPISINYRTEID
modifications: Adnectin

Each molecule was assayed on NL-Rluc virus (assay: Combinectin potency assay: antiviral EC50, NL-Rluc virus in MT-2 cells, luciferase readout). Details: Anti-N17 Adnectin, Table 3.
Format: cell-based, HIV-1
Summary of the method: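 Peptides, serially diluted threefold over 11 points in triplicate, were exposed for 4–5 days to MT-2 cells preinfected 1 h with NL-Rluc virus (MOI 0.01). Replication read out as Renilla luciferase signal, with EC50 derived against untreated infected controls.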

| Molecule | EC50 [nM] |
| --- | --- |
| B1 | > 1000 |
| B2 | 5 |
| B3 | 30 |
| B4 | > 1000 |
| B5 | > 1000 |
| B6 | 83 |
| B7 | > 1000 |
| B8 | > 1000 |
| B9 | 42 |
| B10 | > 1000 |
| B11 | > 1000 |
| B12 | 4 |
| B13 | 331 |
| B14 | > 1000 |
| B15 | 37 |
| B16 | > 1000 |
| B17 | > 1000 |
| B18 | 62 |
| B19 | > 1000 |
| B20 | 109 |
| B21 | > 1000 |
| B22 | > 1000 |
| B23 | > 1000 |
| B24 | 205 |
| B25 | 42 |
